# Laboratory results: patent US6403769
# What was measured:
# [1] = biological target: KGFR-HFc fusion protein (construct not specified); assay: binding of 125I-aFGF to KGFR-HFc in solution, capture on Gamma Bind G
# [2] = biological target: bovine brain aFGF (bovine) (UniProt P03968); assay: comparison value for native KGFR; method not described
# [3] = biological target: keratinocyte growth factor (KGF) (human) (UniProt P21781); assay: comparison value for native KGFR on epithelial cells; method not described
# [4] = biological target: keratinocyte growth factor (KGF) (human) (UniProt P21781); assay: 50% displacement of 125I-KGF by unlabeled KGF, fusion protein captured on Gamma Bind G (Scatchard analysis)
# [5] = biological target: keratinocyte growth factor receptor (KGFR) (UniProt P21803); assay: cell-based or functional assay
# [6] = biological target: keratinocyte growth factor receptor (KGFR) (UniProt P21803); assay: flow cytometry on KGFR-containing B5-589 cells and NIH 3T3 transfectants, FITC rabbit anti-mouse IgG
# [7] = biological target: keratinocyte growth factor receptor (KGFR) (UniProt P21803); assay: competition with 125I-KGF on 32D cells expressing KGFR
# Chain of KGF-HFc fusion protein (P21781 other isoform, or with tags, fused parts or gaps limits assumed): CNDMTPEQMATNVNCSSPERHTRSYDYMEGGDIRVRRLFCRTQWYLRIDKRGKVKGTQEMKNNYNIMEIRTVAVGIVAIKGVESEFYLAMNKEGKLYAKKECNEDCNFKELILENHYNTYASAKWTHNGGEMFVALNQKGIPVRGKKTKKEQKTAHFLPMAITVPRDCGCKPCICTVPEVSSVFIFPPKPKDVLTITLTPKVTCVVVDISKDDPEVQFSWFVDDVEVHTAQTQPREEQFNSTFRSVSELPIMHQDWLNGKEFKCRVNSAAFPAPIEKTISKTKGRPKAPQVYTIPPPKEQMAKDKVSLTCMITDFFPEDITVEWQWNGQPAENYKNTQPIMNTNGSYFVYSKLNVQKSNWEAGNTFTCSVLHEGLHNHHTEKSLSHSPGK
# Chain of bovine brain aFGF (P03968 16-155 limits assumed): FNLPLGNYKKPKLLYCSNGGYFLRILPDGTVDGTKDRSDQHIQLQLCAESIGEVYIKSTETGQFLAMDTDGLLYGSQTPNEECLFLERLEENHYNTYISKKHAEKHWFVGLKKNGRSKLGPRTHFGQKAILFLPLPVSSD
# Chain of keratinocyte growth factor (KGF) (human) (P21781 32-194 limits assumed): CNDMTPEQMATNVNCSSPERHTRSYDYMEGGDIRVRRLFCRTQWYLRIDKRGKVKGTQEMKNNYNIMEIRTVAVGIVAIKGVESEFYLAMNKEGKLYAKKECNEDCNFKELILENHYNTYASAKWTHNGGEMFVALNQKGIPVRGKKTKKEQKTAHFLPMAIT
# Chain of bovine brain aFGF (bovine) (P03968 16-155 limits assumed): as the sequence (P03968 16-155 limits assumed) above
substance,measurement,setting,value
bovine brain aFGF (from UniProt P03968 16-155) (ligand),ligand concentration at which saturable binding was achieved,[1],40 to 50 ng/mL
keratinocyte growth factor receptor (KGFR) (from UniProt P21803 22-821),Kd,[2],0.6 nM
same,Kd,[3],0.18 nM
D3-HFc fusion protein (from UniProt P21803 157-232; P01868 98-324),Kd,[4],0.02 nM
KGF-HFc fusion protein (from UniProt P21781 32-194; P01868 98-324),half-maximal stimulation of 3H-thymidine uptake in BALB/MK cells,[5],45 pM
same,stimulation of 3H-thymidine uptake in BALB/MK cells,[5],> 20 fold
same,fold increase in fluorescent intensity compared to untransfected NIH 3T3 cells,[6],10 to 100 fold
same,Kd,[7],1.4 nM
